According to patent publication US20240352110A1:

Columns and labels:
[1] = biological target: Rf IgM contained in native samples from patients with elevated Rf levels; assay: Elecsys µ-capture (anti-IgM-Ru detection); native sample RF_3_12, Rf 457 IU/mL
[2] = biological target: Rf IgM contained in native samples from patients with elevated Rf levels; assay: Elecsys µ-capture (anti-IgM-Ru detection); native sample RF_2_33, Rf 377 IU/mL
[3] = biological target: Rf IgM contained in native samples from patients with elevated Rf levels; assay: Elecsys µ-capture (anti-IgM-Ru detection); native sample RF_3_1, Rf 430 IU/mL
[4] = biological target: Rf IgM contained in native samples from patients with elevated Rf levels; assay: Elecsys µ-capture (anti-IgM-Ru detection); native sample RF_3_6, Rf 371 IU/mL
[5] = biological target: Rf IgM contained in native samples from patients with elevated Rf levels; assay: Elecsys µ-capture (anti-IgM-Ru detection); native sample RF_3_13, Rf 1492 IU/mL
[6] = biological target: Rf IgM contained in native samples from patients with elevated Rf levels; assay: Elecsys µ-capture (anti-IgM-Ru detection); native sample RF_3_8, Rf 402 IU/mL
[7] = biological target: Rf IgM contained in native samples from patients with elevated Rf levels; assay: Elecsys µ-capture (anti-IgM-Ru detection); native sample D4, Rf 566 IU/mL
[8] = biological target: Rf IgM contained in native samples from patients with elevated Rf levels; assay: Elecsys µ-capture (anti-IgM-Ru detection); native sample E8, Rf 339 IU/mL
[9] = biological target: Rf IgM contained in native samples from patients with elevated Rf levels; assay: Elecsys µ-capture (anti-IgM-Ru detection); native sample RF_3_10, Rf 322 IU/mL
[10] = biological target: Rf IgM contained in native samples from patients with elevated Rf levels; assay: Elecsys µ-capture (anti-IgM-Ru detection); native sample RF_3_9, Rf 439 IU/mL
[11] = biological target: Rf IgM contained in native samples from patients with elevated Rf levels; assay: Elecsys µ-capture (anti-IgM-Ru detection); native sample C9, Rf 640 IU/mL
[12] = biological target: Rf IgM contained in native samples from patients with elevated Rf levels; assay: Elecsys µ-capture (anti-IgM-Ru detection); native sample RF-3-2, Rf 401 IU/mL
[13] = biological target: Rf IgM contained in native samples from patients with elevated Rf levels; assay: Elecsys µ-capture (anti-IgM-Ru detection); native sample RF-3-4, Rf 321 IU/mL
[14] = biological target: Rf IgM contained in native samples from patients with elevated Rf levels; assay: Elecsys µ-capture (anti-IgM-Ru detection); native sample E2, Rf 423 IU/mL
[15] = biological target: Rf IgM contained in native samples from patients with elevated Rf levels; assay: Elecsys µ-capture (anti-IgM-Ru detection); native sample B6, Rf 386 IU/mL
[16] = biological target: Rf IgM contained in native samples from patients with elevated Rf levels; assay: Elecsys µ-capture (anti-IgM-Ru detection); native sample RF_2_32, Rf 655 IU/mL
[17] = biological target: Rf IgM contained in native samples from patients with elevated Rf levels; assay: Elecsys µ-capture (anti-IgM-Ru detection); native sample RF_3_5, Rf 402 IU/mL
[18] = biological target: Rf IgM contained in native samples from patients with elevated Rf levels; assay: Elecsys µ-capture (anti-IgM-Ru detection); native sample RF_2_31, Rf 457 IU/mL
[19] = biological target: Rf IgM contained in native samples from patients with elevated Rf levels; assay: Elecsys µ-capture (anti-IgM-Ru detection); native sample RF_3_7, Rf 318 IU/mL
[20] = biological target: Rf IgM contained in native samples from patients with elevated Rf levels; assay: Elecsys µ-capture (anti-IgM-Ru detection); native sample A5, Rf 466 IU/mL
[21] = biological target: Rf IgM contained in native samples from patients with elevated Rf levels; assay: Elecsys µ-capture (anti-IgM-Ru detection); native sample D8, Rf 572 IU/mL
[22] = biological target: Rf IgM contained in native samples from patients with elevated Rf levels; assay: Elecsys µ-capture (anti-IgM-Ru detection); native sample RF-3-11, Rf 383 IU/mL
[23] = biological target: Rf IgM contained in native samples from patients with elevated Rf levels; assay: Elecsys µ-capture (anti-IgM-Ru detection); native sample RF_3_3, Rf 394 IU/mL

B1: 21F12 F(ab′)2 fragment (protein)
VH: EVQLQQSGPELLKPGASVKISCKASGFTFTDYTMHWMKQSHGKSLEWIGGINPNSGGTIYNEKFKDKATLTVDKSSRTAYMELRSLTSEDSAVYFCTRGVYDGYFYWGQGTLVTVSA
VL: DVVMTQTPLSLPVSLGDQASISCRSSQSLVYSNGNTFLHWYLQKPGQSPKLLIYKVSTRFSGVPDRFSGSGSGSDFTLKISRVEAEDLGIYFCSQTTHAPFTFGSGTKLAIR
**Q.** B1 was tested. Which Elecsys counts [1] did it give?
**A.** The Elecsys counts was 5670 counts.

**Q.** What about the Elecsys counts [2] of the same binder?
**A.** The Elecsys counts was 9430 counts.

**Q.** What about the Elecsys counts [3] of the same binder?
**A.** Its Elecsys counts is 19700 counts.

**Q.** What about the Elecsys counts [4] of the same binder?
**A.** The Elecsys counts was 24500 counts.

**Q.** What about the Elecsys counts [5] of the same binder?
**A.** The Elecsys counts was 4740 counts.

**Q.** And the Elecsys counts [6]?
**A.** The Elecsys counts was 6820 counts.

**Q.** What about the Elecsys counts [7] of the same binder?
**A.** Its Elecsys counts is 13300 counts.

**Q.** And the Elecsys counts [8]?
**A.** Its Elecsys counts is 118000 counts.

**Q.** What about the Elecsys counts [9] of the same binder?
**A.** Its Elecsys counts is 8620 counts.

**Q.** And the Elecsys counts [10]?
**A.** The Elecsys counts was 14500 counts.

**Q.** What about the Elecsys counts [11] of the same binder?
**A.** The Elecsys counts was 8240 counts.

**Q.** And the Elecsys counts [12]?
**A.** The Elecsys counts was 282000 counts.

**Q.** What about the Elecsys counts [13] of the same binder?
**A.** The Elecsys counts was 99600 counts.

**Q.** And the Elecsys counts [14]?
**A.** The Elecsys counts was 102000 counts.

**Q.** What about the Elecsys counts [15] of the same binder?
**A.** Its Elecsys counts is 103000 counts.

**Q.** And the Elecsys counts [16]?
**A.** The Elecsys counts was 4220 counts.

**Q.** And the Elecsys counts [17]?
**A.** The Elecsys counts was 10400 counts.

**Q.** And the Elecsys counts [18]?
**A.** The Elecsys counts was 27300 counts.

**Q.** And the Elecsys counts [19]?
**A.** Its Elecsys counts is 7580 counts.

**Q.** What about the Elecsys counts [20] of the same binder?
**A.** Its Elecsys counts is 11600 counts.

**Q.** What about the Elecsys counts [21] of the same binder?
**A.** Its Elecsys counts is 242000 counts.

**Q.** And the Elecsys counts [22]?
**A.** Its Elecsys counts is 69300 counts.

**Q.** And the Elecsys counts [23]?
**A.** The Elecsys counts was 5850 counts.
